# Data taken from FireProtDB (doi:10.1016/0167-4838(93)90045-s).
# B1: Papain wild type, P00784 (protein)
# chain: MAMIPSISKLLFVAICLFVYMGLSFGDFSIVGYSQNDLTSTERLIQLFESWMLKHNKIYKNIDEKIYRFEIFKDNLKYIDETNKKNNSYWLGLNVFADMSNDEFKEKYTGSIAGNYTTTELSYEEVLNDGDVNIPEYVDWRQKGAVTPVKNQGSCGSCWAFSAVVTIEGIIKIRTGNLNEYSEQELLDCDRRSYGCNGGYPWSALQLVAQYGIHYRNTYPYEGVQRYCRSREKGPYAAKTDGVRQVQPYNEGALLYSIANQPVSVVLEAAGKDFQLYRGGIFVGPCGNKVDHAVAAVGYGPNYILIKNSWGTGWGENGYIRIKRGTGNSYGVCGLYTSSFYPVKN
# Details: Carica papaya, Thermal, DSC, glycine 0.05M, reversible: No, whole UniProt chain shown
protein,measurement,setting,value
B1,Tm,pH 2.9,60.3 °C
same,unfolding enthalpy (calorimetric),pH 2.9,556 kJ/mol
same,Tm,pH 3.8,78.5 °C
same,unfolding enthalpy (calorimetric),pH 3.8,826 kJ/mol
same,Tm,pH 4.1,81.8 °C
same,unfolding enthalpy (calorimetric),pH 4.1,882 kJ/mol
